From paper PMC11081498 come the findings set out here.

Test [1] concerns the target Giardia lamblia virus strain GLV-CAT capsid protein (Giardia lamblia virus (strain GLV-CAT)). Nature of the test: cryo-EM structure; single-particle analysis of purified virions plunge-frozen on holey carbon grids; 300-kV Titan Krios; icosahedral symmetry imposed; atomic models of CP-A and CP-B built into the maps.
The target in test [2] is Giardia lamblia virus strain GLV-HP capsid protein (Giardia lamblia virus (strain GLV-HP)). The description is as above.

The substance “Giardia lamblia virus strain GLV-CAT capsid protein (natural protein)” had a stoichiometry N (CP dimers (CP-A and CP-B) in the capsid) in test [1] of 60. In turn, “Giardia lamblia virus strain GLV-HP capsid protein (natural protein)” came in with a stoichiometry N (CP dimers (CP-A and CP-B) in the capsid) in test [2] of 60.
